Earlier results on one substance are cited in PMC4986992.

One may read the Kd as the constant that tells how readily two partners part at equilibrium.

In the data set the target is Glycophorin A (GpATM) TM (Homo sapiens) (UniProt P02724).

Regarding “Glycophorin A (GpATM) TM (from UniProt P02724)”, the Kd is 1.2 pM.
